Assay in all cases: radioligand binding
The target in assay [1] is [R23D]Ls-AChBP, Ub-tagged (Lymnaea stagnalis) (UniProt P58154).
For assay [2], the target named is [H69A]Ls-AChBP, Ub-tagged (Lymnaea stagnalis) (UniProt P58154).
For assay [3], the target named is Ubiquitin (Ub)-tagged Ls-AChBP, wild type (Lymnaea stagnalis) (UniProt P58154).
Assay [4] addresses [T184F S186E]Ls-AChBP, Ub-tagged (Lymnaea stagnalis) (UniProt P58154).
Assay [5] has as its target [Q55K]Ls-AChBP, Ub-tagged (Lymnaea stagnalis) (UniProt P58154).
For assay [6], the target named is Ubiquitin (Ub)-tagged Ls-AChBP, wild type (Lymnaea stagnalis) (UniProt P58154). The source holds these as a separate data set.
Assay [7] deals with [S186E]Ls-AChBP, Ub-tagged (Lymnaea stagnalis) (UniProt P58154).
Assay [8] concerns the target [T184F]Ls-AChBP, Ub-tagged (Lymnaea stagnalis) (UniProt P58154).
Assay [9] concerns the target [T184K]Ls-AChBP, Ub-tagged (Lymnaea stagnalis) (UniProt P58154).

Like-named read-outs stand apart in the source and are kept apart here. A value given as a limit tells only on which side of the number the result lay.

Take “VxXXB-CNC, full-length synthetic VxXXB (peptide)”: the 50% inhibitory concentration (IC50) is more than 10 µM in assay [1], more than 10 µM in [2], 0.8 µM in assay [3] and 0.004 µM in assay [4].
Take “VxXXB-C(19–50), full-length C-terminal domain of αD-conotoxin VxXXB (peptide)”: the half-maximal inhibitory concentration (IC50) in [1] was 10 µM; in assay [2] it was 10 µM; in [3], 10 µM; in assay [5], 29.7 µM; in [4] it was 0.03 µM; in assay [6] it was 7.2 µM. Moreover, the IC50 in assay [7] is 0.09 µM; in assay [8] it was 0.58 µM; in assay [9] it was more than 100 µM.
With “native αD-conotoxin VxXXB (from UniProt P0C1W6 46-95) (natural protein)”, the IC50 in assay [4] was 0.001 µM; in assay [6], 0.011 µM.
Take “VxXXB-C(21–50), C-terminal domain of αD-conotoxin VxXXB (peptide)”: the 50% inhibitory concentration (IC50) in [5] was 36 µM; in [4] it was 0.05 µM; in assay [6] it was 10 µM; in [7] it was 0.04 µM; in assay [8], 7.2 µM; in assay [9], 55 µM.
